Values of other authors as cited in paper PMC2846211.

Biological target: DNA polymerase gamma accessory subunit (Homo sapiens) (UniProt Q9UHN1)
UniProt Q9UHN1, sequence (Q9UHN1 2-485): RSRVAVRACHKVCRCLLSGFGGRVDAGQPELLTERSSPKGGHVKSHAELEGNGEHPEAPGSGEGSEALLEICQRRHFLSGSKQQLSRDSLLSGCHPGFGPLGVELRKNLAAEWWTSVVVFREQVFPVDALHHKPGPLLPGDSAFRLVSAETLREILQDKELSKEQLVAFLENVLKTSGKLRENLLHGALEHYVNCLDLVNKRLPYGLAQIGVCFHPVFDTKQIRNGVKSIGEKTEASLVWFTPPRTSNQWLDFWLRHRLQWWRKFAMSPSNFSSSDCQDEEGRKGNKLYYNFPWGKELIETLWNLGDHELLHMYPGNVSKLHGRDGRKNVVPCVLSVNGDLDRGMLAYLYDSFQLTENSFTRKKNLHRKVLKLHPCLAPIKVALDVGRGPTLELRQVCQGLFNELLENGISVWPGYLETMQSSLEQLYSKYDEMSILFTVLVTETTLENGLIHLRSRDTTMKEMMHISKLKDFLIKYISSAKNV

Kd: 35 nM
Substance: DNA polymerase gamma catalytic subunit (from UniProt P54098)
